Assay results as given in patent US8124583B2, “Composition and method for self-assembly and mineralization of peptide-amphiphiles” (Northwestern University, priority 2002, dated 2012).
Square brackets hold non-standard residues; d marks the D form. * marks the point of attachment. Palmitoyl = CCCCCCCCCCCCCCCC(=O)*; pS = N[C@@H](COP(=O)(O)O)C(=O)O; C16 = 16 carbon alkyl tail

How the values were obtained:
Format in all cases: physicochemical
[1] = Gelation of charged peptide amphiphile solutions with ions or with each other; conditions: positive PA in Ca+2 (reaction 4); negative PA in PO4−3 (reaction 5)
Source text: In another example of this invention, the composition and method consists of using highly charged peptide amphiphile species (16 carbon alkyl tail with a sequence like CCCCGGGSS(P)DS(P)D (SEQ ID NO: 14) with a −7 charge, for example) dissolved in a solution of negative ions (phosphate ions with a −3 charge), call this solution X. A second solution with a positively-charged peptide amphiphile species (such as 16 carbon alkyl tail with a sequence like ACAAGGGKRGDS (SEQ ID NO: 21)—an amine terminated PA at +1 charge) in a solution with positively-charged ions, such as Ca^2+; call this solution Y. In both solutions the peptide heads are charged and the structural element of the peptide can be varied, to give different charged peptide-amphiphile species, depending on the application.
The positive and negative peptide amphiphiles alone (no added salt ions) will gel each other, reaction 1, when mixed in the right ionic ratios (1:7, (−):(+) in this instance), forming mixed peptide amphiphile nanofibers, theoretically composed of 7 positive peptide amphiphiles for every 1 of the negative peptide amphiphiles. The positive peptide amphiphile solution Y may be gelled, reaction 2, with the negative ions (for example a solution containing phosphate ion PO4^−3). […] Mixing the positive and negative ions (calcium cation with phosphate anion) will make calcium phosphate mineral (reaction 6). […]

Solubility in water = conditions: for concentration at which the molecules dissolve: pH 7.5-adjusted water
Experimental: (§1) The two molecules dissolve in pH 7.5-adjusted water at a concentration of about 10 mg/mL. Molecule 1 has a charge of (−1) and molecule 2 has a charge of (+2) under these conditions.
Cleavage and deprotection of the molecules was accomplished with a mixture of trifluoroacetic acid (TFA) and triisopropylsilane (TIS) in a ratio of 95:5 for three hours at room temperature. The cleavage mixture and two subsequent TFA washings were filtered into a round bottom flask. The solution was roto-evaporated to a thick viscous solution. This solution was triturated with cold diethylether. The white precipitate was collected by filtration, washed with copious cold ether and dried under vacuum. The molecules were then dissolved in water at a concentration of 10 mg/mL, adjusting the pH to improve solubility. The solution was initially acidic in both cases. In the case of molecule 1, the pH was raised to about pH 8 with 2M and 100 mM KOH, then back-titrated to pH 7.

[2] = Self assembly/gelation with monovalent salts (KCl, NaCl); conditions: mixing with 200 mM KCl or NaCl solutions
Experimental: as §1
In all cases self assembled gels comprised of the nanofibers were formed similar to those described elsewhere (Hartgerink et al., 2001; Hartgerink et al., 2002). In contrast no self assembly or gel formation was observed when other negatively or positively charged peptide-amphiphiles were exposed to the NaCl or the KCl at concentrations up to 6 M. The fact that molecules 1 and 2 assemble in the presence of the monovalent salts sets them apart from the other molecules studied. […] The reason for this difference may be in the structure of these molecules. Both these molecules contain IKVAV (SEQ ID NO: 1) sequence at the c-terminus of the peptide segment. […]
Transmission Electron Micrographs of samples of the supramolecular compositions from the multi-dimensional peptide-amphiphiles, Molecule 1 and Molecule 2, were prepared as follows. A small sample of the supramolecular composition gel, prepared in bulk as described above, was smeared onto a holey carbon coated TEM grid (Quantifoil). […]

[3] = Self assembly with CaCl2 and hydroxyapatite mineralization of nanofiber gel (TEM, electron diffraction)
Experimental: A liquid composition for the self assembly of (1) and mineralization of hydroxyapatite was prepared by dissolving […] NaH2PO4 (Aldrich) into 200 microliters of (1) at a concentration of 10 mg/ml in water. The pH of the solution was adjusted to 7.7.
The liquid composition containing (1) and NaH2PO4 was mixed with 40 micromoles of CaCl2 (Aldrich).
Samples of the gel after 2 hours, 1 day, and 5 days were mounted on carbon-coated TEM grids. TEM studies of the 1 and 5 day samples show a multi-crystalline material composed of plate like crystals˜5 nm thick and 50 to 100 nm long. The plate like crystals were similar to those observed in the mineralization experiments on the pre-assembled template.

Substance	gelation in ions of the same charge sign [1]	concentration at which the molecules dissolve (Solubility in water)	gel formation with monovalent salt [2]	also measured
ACAAGGGKRGDS [positively-charged peptide amphiphile, 16 carbon alkyl tail, amine terminated PA]	does not gel	–	–	–
C15H31C(O)-CCCCGGGEIKVAV-COOH (Palmitoyl-CCCCGGGEIKVAV-OH; cysteine pairing not given here) [PA 22]	–	about 10 mg/mL	self-supporting gel forms	–
C15H31C(O)-CCCCGGGEIKVAV-NH2 (Palmitoyl-CCCCGGGEIKVAV-NH2; cysteine pairing not given here) [Molecule 2]	–	about 10 mg/mL	self-supporting gel forms	pH dependence of solubility (Solubility in water; water, 10 mg/mL, pH adjusted with KOH): most soluble at low pH
C15H31C(O)-CCCCGGGS(P)RGD-COOH (Palmitoyl-CCCCGGG[pS]RGD-OH; cysteine pairing not given here) [PA 18]	–	–	–	self assembled gel formation ([3]; addition of CaCl2 to 10 mg/ml peptide-amphiphile preloaded with NaH2PO4, pH 7.7): formed immediately; time until gel turned a white color (mineralization started) ([3]; after CaCl2 addition): about 2 hours
CCCCGGGSS(P)DS(P)D (C16-CCCCGGGS[pS]D[pS]D-OH; cysteine pairing not given here; also: C16 alkyl tail)	does not gel	–	–	–
